Measured values published in US20030077290A1 (PHADIA, published 2003).

Biological target: basophil-bound IgE of a grass pollen allergic patient
Experiment: cell-based or functional assay

reduction of histamine release compared to complete rPhl p 6: ~1000 fold
B1: rPhl p 6 aa 1-33 (peptide)
chain: GKATTEEQKLIEDINASFRAAMATTANVPPADK
